From patent publication US20140242093A1, “METHODS AND COMPOSITIONS FOR MODULATING THE INNATE IMMUNE RESPONSE AND/OR MYOGENESIS IN A MAMMALIAN SUBJECT” (FRED HUTCHINSON CANCER RESEARCH CENTER, priority 2011, published 2014)

Tested on: control human primary myoblasts
Assay: Expression microarray of primary myoblasts transduced with lentivirus carrying DUX4-fl, DUX4-s or GFP
Method: Primary human myoblasts were collected and cultured as previously described (Snider et al., 2010). Primary myoblasts were maintained at or below 70% confluency for proliferation. For differentiation, cells were allowed to reach 95-100% confluency in growth medium. Once confluency was reached, the cells were changed to differentiation medium (F10 media supplemented with 1% horse serum, 10 μg/mL insulin, and 10 μg/mL transferrin, penicillin/streptomycin) and maintained for 4 days. Human RD cells were grown in DMEM in 10% bovine calf serum (Hyclone) and penicillin/streptomycin. The primary myoblasts were transduced with lentivirus carrying DUX-fl, DUX4- or GFP (MOI=15).
Expression microarrays were performed on the transduced cells at 24 hours after transduction as follows. […] Samples were analyzed by Illumina Human Whole Genome microarrays. Probe intensities were corrected, normalized, and summarized by the Lumi package of Bioconductor (Du et al., 2008). Differentially expressed genes were identified by the LIMMA package of Bioconductor (Wettenhall and Smyth, 2004). Gene set enrichment analysis (GSEA) was performed using the Bioconductor GOstats package (Falcon and Gentleman, 2007).

B1: DUX4-s: short splice form of DUX4 (SEQ ID NO:112), keeps the double-homeobox domains, lacks the C-terminal activation domain (protein, listed as Homo sapiens)
chain: MALPTPSDSTLPAEARGRGRRRRLVWTPSQSEALRACFERNPYPGIATRERLAQAIGIPEPRVQIWFQNERSRQLRQHRRESRPWPGRRGPPEGRRKRTAVTGSQTALLLRAFEKDRFPGIAAREELARETGLPESRIQIWFQNRRARHPGQGGRAPAQV
- IFITM3 expression fc (Refseq NM_021034.2, cultured human skeletal muscle): −0.1274
- NEFH expression fc (Refseq NM_021076.2): 0.09952
- fc of SLC8A1 (expression array) (Refseq NM_021097.2): 1.046
- PSAT1 fc (Refseq NM_021154.3): 0.7365
- RAB40C fc (Refseq NM_021168.2): −0.07138
- fc of SLC30A1 (expression array) (Refseq NM_021194.2): 1.236
- CTDSP1 fc (Refseq NM_021198.1): 0.04155
- ARHGAP22 fc (Refseq NM_021226.2): 0.07773
- fc of NTN4 (expression array) (Refseq NM_021229.3): 0.03724
- PELI2 expression fc (Refseq NM_021255.2): −0.3732
- PLEKHA2 fc (Refseq NM_021623.1): 0.062
- AVPI1 expression fc (Refseq NM_021732.1): 0.1884
- fc of FAM3A (expression array) (Refseq NM_021806.1): −0.1833
- APOBEC3G expression fc (Refseq NM_021822.1, cultured human skeletal muscle): 1.408
- fc of C14orf93 (expression array) (Refseq NM_021944.1): −0.1073
- HSPA2 expression fc (Refseq NM_021979.3): −0.2546
- CXCL16 fc (Refseq NM_022059.1): 1.184
- NOD2 fc (Refseq NM_022162.1): 0.4347
- IFIH1 expression fc (Refseq NM_022168.2, cultured human skeletal muscle): 1.659
- HS1BP3 fc (Refseq NM_022460.3): 0.05143
- C14orf173 fc (Refseq NM_022489.2): −0.2714
- FEZ1 fc (Refseq NM_022549.2): 0.19
- HIPK2 fc (Refseq NM_022740.2): 0.3559
- fc of MOSC1 (expression array) (Refseq NM_022746.2): −0.1084
- PARP12 expression fc (Refseq NM_022750.2, cultured human skeletal muscle): 0.7767
- CRTC3 fc (Refseq NM_022769.3): −0.1184
- FAM129B fc (Refseq NM_022833.2): 0.4382
- IFI6 expression fc (Refseq NM_022872.2, cultured human skeletal muscle): −0.03611
- FGFR3 expression fc (Refseq NM_022965.1): 0.04147
- PRAMEF1 expression fc (Refseq NM_023013.1): 0.0691
- PRAMEF2 expression fc (Refseq NM_023014.1): −0.04937
- C8orf33 expression fc (Refseq NM_023080.1): −0.06075
- GRAMD3 fc (Refseq NM_023927.1): 0.3772
- NEUROG2 expression fc (Refseq NM_024019.2): −0.004473
- NUP37 fc (Refseq NM_024057.2): −0.1339
- PRRG4 expression fc (Refseq NM_024081.4): 0.2096
- TRIM48 expression fc (Refseq NM_024114.2): −0.07954
- DHX58 expression fc (Refseq NM_024119.2, cultured human skeletal muscle): 0.6965
- PRKAG2 fc (Refseq NM_024429.1): 0.7547
- fc of FAM65A (expression array) (Refseq NM_024519.2): −0.1263
- fc of ZC3HAV1 (expression array) (Refseq NM_024625.3): 1.471
- YRDC expression fc (Refseq NM_024640.3): 0.000579
- NPEPL1 fc (Refseq NM_024663.3): −0.2631
- SNIP1 expression fc (Refseq NM_024700.2): −0.174
- fc of FAM57A (expression array) (Refseq NM_024792.1): −0.003135
- C13orf34 expression fc (Refseq NM_024808.2): −0.002127
- fc of NUDT18 (expression array) (Refseq NM_024815.3): 0.1692
- fc of ZNF672 (expression array) (Refseq NM_024836.1): −0.1481
- C14orf159 expression fc (Refseq NM_024952.5, cultured human skeletal muscle): 0.5194
- NRSN2 fc (Refseq NM_024958.1): 0.06807
- SLC24A6 fc (Refseq NM_024959.2): 0.0001018
- CSRNP3 expression fc (Refseq NM_024969.2): −0.07941
- fc of ULBP1 (expression array) (Refseq NM_025218.2): 0.6193
- C6orf148 expression fc (Refseq NM_030568.2): −0.1046
- KLHL15 expression fc (Refseq NM_030624.1): 0.7742
- fc of ZBP1 (expression array) (Refseq NM_030776.1): 1.187
- SLC2A10 fc (Refseq NM_030777.3): −0.3197
- SYNC1 fc (Refseq NM_030786.1): −0.2508
- PDRG1 expression fc (Refseq NM_030815.2): 0.0622
- UNC93B1 expression fc (Refseq NM_030930.2, cultured human skeletal muscle): 0.9411
- PPP1R14C expression fc (Refseq NM_030949.2): −0.01369
- TRIM56 fc (Refseq NM_030961.1): 0.3086
- fc of RNF146 (expression array) (Refseq NM_030963.2): 0.1463
- ADPGK expression fc (Refseq NM_031284.3): 0.09196
- C11orf68 fc (Refseq NM_031450.2): 0.3616
- FAM107B expression fc (Refseq NM_031453.2): −0.1841
- PARP9 expression fc (Refseq NM_031458.1, cultured human skeletal muscle): 0.4426
- IFI27L2 fc (Refseq NM_032036.2): −0.02949
- SFRS2B expression fc (Refseq NM_032102.2): −0.3335
- fc of ATRIP (expression array) (Refseq NM_032166.2): 0.002138
- CEP78 expression fc (Refseq NM_032171.1): −0.1396
- SON expression fc (Refseq NM_032195.1): −0.2838
- LARP1B expression fc (Refseq NM_032239.2): −0.2602
- MED10 expression fc (Refseq NM_032286.2): 0.5994
- C1orf57 fc (Refseq NM_032324.1): 0.3544
- ELOF1 expression fc (Refseq NM_032377.3): −0.3008
- fc of C15orf48 (expression array) (Refseq NM_032413.2): 1.653
- PKIB expression fc (Refseq NM_032471.4): −0.1719
- KBTBD8 expression fc (Refseq NM_032505.1): 0.01077
- TMEM185A expression fc (Refseq NM_032508.1): 0.2327
- PARD6G fc (Refseq NM_032510.3): −0.01049
- fc of EBPL (expression array) (Refseq NM_032565.2): −0.0901
- fc of ACCS (expression array) (Refseq NM_032592.3): −0.1557
- RBBP6 expression fc (Refseq NM_032626.5): −0.1339
- SPRYD5 expression fc (Refseq NM_032681.1): −0.07702
- fc of SPPL2A (expression array) (Refseq NM_032802.3): 1.124
- ATOH8 expression fc (Refseq NM_032827.4, cultured human skeletal muscle): −0.2886
- CORO6 fc (Refseq NM_032854.2): −0.3004
- fc of TIGD5 (expression array) (Refseq NM_032862.2): −0.2163
- CASP6 expression fc (Refseq NM_032992.2): 0.2336
- TRIM5 fc (Refseq NM_033034.1): 0.5003
- EPSTI1 expression fc (Refseq NM_033255.2, cultured human skeletal muscle): 0.6618
- TP53INP1 fc (Refseq NM_033285.2): −0.5734
- CASP1 fc (Refseq NM_033294.2): 2.171
- PRIC285 expression fc (Refseq NM_033405.2, cultured human skeletal muscle): 0.8634
- ZNF622 expression fc (Refseq NM_033414.2): 0.01403
- PANX2 expression fc (Refseq NM_052839.2): 0.2001
- fc of C20orf72 (expression array) (Refseq NM_052865.2): −0.05254
- fc of GBP5 (expression array) (Refseq NM_052942.2): 1.314
- fc of ALPK2 (expression array) (Refseq NM_052947.3): −1.08
- fc of ANTXR1 (expression array) (Refseq NM_053034.1): 0.3595
- AP1S1 fc (Refseq NM_057089.2): −0.1404
- CCNE1 expression fc (Refseq NM_057182.1): −0.1277
- FBXO32 fc (Refseq NM_058229.2): 0.7666
- CCNT2 expression fc (Refseq NM_058241.1): −0.3221
- SLC44A1 fc (Refseq NM_080546.3): 0.7801
- fc of C2orf28 (expression array) (Refseq NM_080592.2): −0.07859
- DYNLL2 expression fc (Refseq NM_080677.1): 0.6521
- HOM-TES-103 fc (Refseq NM_080731.1): −0.3166
- ZNF280A expression fc (Refseq NM_080740.3): 0.05889
- C20orf127 expression fc (Refseq NM_080757.1, cultured human skeletal muscle): 0.4401
- fc of PTPRA (expression array) (Refseq NM_080841.2): 0.04113
- ASB5 fc (Refseq NM_080874.2): −0.4567
- APBB3 expression fc (Refseq NM_133172.2, cultured human skeletal muscle): 0.03992
- fc of DIS3L (expression array) (Refseq NM_133375.2): −0.2728
- C6orf117 expression fc (Refseq NM_138409.1): −0.06998
- fc of SDSL (expression array) (Refseq NM_138432.2): −0.09243
- TRIM43 expression fc (Refseq NM_138800.1): 0.02385
- CMBL expression fc (Refseq NM_138809.3, cultured human skeletal muscle): 0.06858
- fc of FGD4 (expression array) (Refseq NM_139241.1): 1.214
- ANGPTL4 fc (Refseq NM_139314.1): 1.267
- MBD3L2 expression fc (Refseq NM_144614.2): 0.02684
- JSRP1 fc (Refseq NM_144616.2): −0.4661
- fc of PPM1M (expression array) (Refseq NM_144641.1): −0.2381
- fc of C1orf58 (expression array) (Refseq NM_144695.2): 1.054
- FXYD5 fc (Refseq NM_144779.1): 0.09461
- Cllorf82 expression fc (Refseq NM_145018.2): −0.2738
- CDC42EP5 fc (Refseq NM_145057.2): 0.1387
- SPATA18 expression fc (Refseq NM_145263.2, cultured human skeletal muscle): −0.214
- MOBKL2C fc (Refseq NM_145279.4): 0.1274
- ZNF296 expression fc (Refseq NM_145288.1): 0.1758
- fc of MGST1 (expression array) (Refseq NM_145792.1): 0.2271
- OSBPL7 fc (Refseq NM_145798.2): −0.3669
- TP53I3 expression fc (Refseq NM_147184.1, cultured human skeletal muscle): 0.192
- fc of GJD3 (expression array) (Refseq NM_152219.3): 0.8646
- ACPL2 fc (Refseq NM_152282.3): 0.1468
- fc of C1orf131 (expression array) (Refseq NM_152379.2): −0.08789
- fc of PPM1K (expression array) (Refseq NM_152542.2): 1.44
- C12orf50 expression fc (Refseq NM_152589.1): −0.02137
